Assay: soluble on expression in E. coli; label from the status in PepcDB or PDB records
For “MSLNKEQRRITAEELQAHFEESTLSVQMIAEKLNVTTEDVEKVLAMTAPLGIFSHQLQRFIHLVWDVRDVINDNIKGNGQTPEPYTYLKGEKEDYWFLR”, the “soluble on expression in E. coli” value was “not soluble”. With “MAHMVNGKVALVTGAAQGIGRAFAEALLLKGAKVALVDWNLEAGVQCKAALHEQFEPQKTLFIQCDVADQQQLRDTFRKVVDHFGRLDILVNNAGVNNEKNWEKTLQINLVSVISGTYLGLDYMSKQNGGEGGIIINMSSLAGLMPVAQQPVYCASKHGIVGFTRSAALAANLMNSGVRLNAICPGFVNTAILESIEKEENMGQYIEYKDHIKDMIKYYGILDPPLIANGLITLIEDDALNGAIMKITTSKGIHFQDYGSKENLYFQ” the “soluble on expression in E. coli” value was “soluble”. In the case of “MGSDKIHHHHHHMASLVDQITDLYVRMAELERRNRNRRRKGTIAEVSDDKSKYRVKLSEQAGKPYLTPWIKARTLAAGGVKVDVLYSVGEQVDVVSENGEMTDAQIDFSTYSDDNARENSDTPFHIKIGDTVIEASAGQAKVTSPKVIVESPNVQLGGDGGKRVARIGDLVHVMSGSSSGKWPIVEGSEHVFAVD”, the “soluble on expression in E. coli” value was “not soluble”. In the case of “GMAEAKSRVGRPSGDTQNRDKLILAARNLFIERPYAQVSIREIASLAGTDPGLIRYYFGSKEKLFSTMIHETAMPVLAQLHKARRETRQESPAALLQTYYSVMSKHPHFPRLMLRIAGLDQSLPENAEVTKAFYEVVNFENIAIFQRLKDKNLLKDDVDAHCAQLSFFAMMVFPFIVPENLLERVGIELTPDFLQLLAEQNTRLLQRGLMDVKDERDE”, the “soluble on expression in E. coli” value was “soluble”. With “MGSDKIHHHHHHMTYAVGDIHGCFYALKSLLEKLPLSEEDELIFMGDYVDRGPNSREVIEFLIELSKHHRCIFLRGNHEEMLLNCVKNGSDCDLWFFNGARSTVESFGGVEEIKKFLPFFENTVYHYEKENYVFVHGGVRPGVSLEDQDPFDLVWIRDEFIYSENPLPGKIVVFGHTPFEEPFVSRDKIGIDTGCVYGGRLTALRVEDRKFFQVECANRRW” the “soluble on expression in E. coli” value was “not soluble”. In the case of “MSLTTALAPGAADALLFDLGRVVIDYDLRRTLKAWAVELGSDPHALMAKLAQNDTFHRYETGHVTDAEFFAAVRTALGLTLTDAQLREGWNAIFIGEMPGIAPLLDRAAKQLPLYALSNTNDSHIAHFSEHYAELLVHFRELFLSSRIGMRKPNGETYDFVVKAIGIAPQRIVFFDDLAENVEAARERGLYAVQVHSSDDVARTLDQLGLEGHHHHHH”, the “soluble on expression in E. coli” value was “soluble”. In the case of “MSLKILVIGPSWVGDMVMSQSLYQRLKQQHPDAQIDVLAPAWCKPILERMPEVNQAIEMTIGHGAFNLLGRRAIGCELRDNRYTHAIVLPNSAKSALIPWFANIPKRTGWKGEFRYGLLNDLRPDKRVFQYMVERYVALAHPKATMLADVSLEHCPRPKLVIDAIVQQAARQRLSLVSSRPVIGLCPGAEFGPAKRWPDHYYAEVARYAIEQGFQVWLFGSAKDHSVTTQIQQALSEEQREYCANLAGETSLIEAVDLLAACHTVVSNDSGLMHVSAAVGCNIVAIYGSSSPKYTPPLTDKLAVVHTEIECRPCFKRVCPLEHLNCLNQLKPAQVIKALDKFIGKDSEGHHHHHH”, the “soluble on expression in E. coli” value was “soluble”. For “MMTDRTERRRRLTHAACTPSANNQRTTRLPPHPGFFSWSNPACDDGLFLYRTTVSRGVDTQRRRRSHPGFFSCRYHPSTVSLARRHRGPGKRISLRTEISKDADPISTVTETRWFLLNFQCIEPPLEHHHHHH”, the “soluble on expression in E. coli” value was “soluble”. With “AIAITGETEPACVEDASQLAEQRNGAPVMEAGCAAVPVEANATKRGYWRQRTLHSWFIGRKPQRTCIAVDIDEVLAFFVPELCAFHNKRYGTRLQATDFHSYRFAEVWGGTDTDAIRKVHEFFRTPAFQELQPIPGAKQVLQSRLARFRFVVVTSRQLVIEQETRAWLDKHFSGIFEAIYLGNQWALHPNGEHGTGVGSAAQEPQRLFANRRRKSQVCKACGAAVLIDDLPHNLLDCSENGVFGVLFDFQGQYGWSKSPAFESKDIAVVHSWEAVGELLDRL” the “soluble on expression in E. coli” value was “soluble”. In the case of “MGKKKNSNKSAAAAPAVKHNDRWSSIELGEAKSAAVSHYKEPSKEPKFVHPAKLEKVKRIHDGLNIDRVLSHGPVPKQNGGTKRKHVEVTTQKLENKKPKVEVKKEDEKSKNKKMKNQNKHTALVQNETSTRSTYFVEEPDNENKVTLISNGREIAFKKTEVVESDDEQMIGLDSDEELEDEDETDIDEDEMMIDPKDIERYINFESVEDEEDMEDEEIEDEEFEDEEFEDEEEEADEQEEEEEDVSDEESVVSEMDADSDDEGFIAGKDREAHVISKDKFTRNAPAVDFDKFPFTDEDSVVTSSRAFGFMISPCDVQTFFDKFYQSNVLVVRRKQPTYFGNLFSTARLGELLEKNHLEYGRNINIAQYKNGVRTTLNGQGRAYPQIVKQHLHNMCSVQLVNPQTYDDRIWYLCEVIQEQFGCFVGANTYLTPAGSSGFAPHWDEIDAFLLQVEGRKYWRVWAPESAEEELPLESSDNFTEDDMKGREPVFEGWIEKGDMIYIPRGYIHQARTDSKVHSLHVTVSTGRQWSFANLMEKVVPEAIGVLTDTRHKLRRGLPTGLFDMGGVIDLDYSQEDHFVEKFKMVVDRHMSMLRNLVADQLLESSVDSLAKEFMKQALPPRLTEQEKKLSVLGSSTNLLGDDLVDFTARTKVRLIRRHTQRLLMESEDACFISHRINNSRLFEGRPEQIVEYPISGIDAYRVLSNSYPEWRTLYEIFSLRETKTKSRKENLAAIQLLFQIGVLLVKN”, the “soluble on expression in E. coli” value was “not soluble”. In the case of “MWTGKTGNMLGALALTLTDRIRAEVNVSLDAGGETAAALVLLGANPALTVAEIAEALGLTHSGAVRLVDRLCVSGLAERQSGPDARAVHVRLTSAGARQRRRALLRRQAVLDHALQALSPSEEAAFAQMLDKLLRRMLDFPDQGHRFCRLCDEDLCVPHGCPVEERLVELLERQARETGL”, the “soluble on expression in E. coli” value was “not soluble”. For “MSLSESAPTPRRERVIVGMSGGVDSSVSALLLLQQGYQVEGLFMKNWDEDDGTEYCTAREDLADAQAVCDRIGIKLHTANFAAEYWDNVFEHFLAEYKAGRTPNPDILCNREIKFKAFLDYALMLGADLIATGHYVRRRDRDGRTELLKGLDPNKDQSYFLHAVGGEQIARSLFPVGELEKPEVRAIAEKHGLATAKKKDSTGICFIGERRFTDFLKQYLPAQPGDIETTEGKVIGRHSGLMYHTIGQRQGLGIGGLKEAGDDPWYVLGKDLQRNVLLVGQGNDHPLLFSRALLASRIYWVNPVELERPRRLRAKVRYRQSDQDCVLEKTAEGYRAVFDEPQRAVTPGQSVVFYDGDVCLGGGVIETAEAWDFGGRPEGHHHHHH”, the “soluble on expression in E. coli” value was “soluble”. For “MNITQILSQELSATAAQITAAVELLDDGATVPFIARYRKEATGGLDDTQLRRLAERLQYLRELEERKAVVLKSIEEQGKLSDDLRAQIEAADNKTALEDLYLPYKPKRRTKAQIAREHGLQPLADVLLAEQSQDVEAAAQGYLNENVPDAKAALDGARAILMEQFAEDAELIGTLRDKLWNEAEIHAQVVEGKETEGEKFSDYFDHREPVRTMPSHRALAVLRGRNEGVLNIALKYQPDDTPITRQSEYEQIIACRFKVSDGHKWLRDTVRLTWRAKIFLSLELEALGRLKEAADTDAITVFARNLKDLLLVAPAGRLTTLGLDPGYRNGVKCAVVDDTGKLLDTVIVYLHQENNMLATLSRLIKQHGVKLIAIGNGTASRETDKIAGELVRGMPEMGLHKIVVSEAGASIYSASELAAREFPDLDVSLRGAVSIARRLQDPLAELVKIDPKSIGVGQYQHDVNQNQLAKSLDAVVEDCVNAVGVDVNTASAPLLARISGLNQTLAQNIVAYRDENGAFDSRKKLLKVPRLGEKTFEQAAGFLRINGGKEPLDASAVHPEAYPVVAKMLAQQGISAAELIGNRERVKQIKASDFTDERFGLPTILDILSELEKPGRDPRGEFQTASFAEGIHEISDLQVGMILEGVVSNVANFGAFVDIGVHQDGLVHISALSNKFVQDPREVVKAGDVVKVKVLEVDAARKRIALTMRLDDEPGGAKHKMPSENRSRERTAGRKPQRNDRAPANSAMADAFAKLKR”, the “soluble on expression in E. coli” value was “soluble”. In the case of “MQPNDITFFQRFQDDILAGRKTITIRDESESHFKTGDVLRVGRFEDDGYFCTIEVTATSTVTLDTLTEKHAEQENMTLTELKKVIADIYPGQTQFYVIEFKCL”, the “soluble on expression in E. coli” value was “soluble”. For “LGKLDVLKVSAPWLASLRDELDQTCFLAVWGNKGPTVVYVEPSMGAVTLVTQIGSVLPLLSSSTGLVFDSFLAQGETALLREQETPRLSADQLHEVERHIKQIRATGVHQIQGMLMPGINAASSPLFAMGNKLVGVITVVGPGSVLNDKAQGQAARRLLETATAISERMGGSQLRS”, the “soluble on expression in E. coli” value was “soluble”. In the case of “MSLHGVPFGTVPPMGTIGLIAAMPDEIRPFLRLASPAARLHGGRFPIWRLRVGNDDIVLVESGMGIDRATAATDALVAAASPVAILSFGFGGAALPGLKVGDLAVGMTSWFAGTEGIVLRRGIDRNLAEKLAEELNRICNGVTRGEIITSARILKKGDLAHSLPNGISSPILDMETAAVAEAAHRRGIPIVALRAISDDAEEELSFSLDEFTDDDMAIRPRKVLATIARKPWIIPQLLRLARNSRIAGKRLAQGVLATAEFLSRGEGHHHHHH”, the “soluble on expression in E. coli” value was “not soluble”. For “MGSDKIHHHHHHKEQNLDDFEQEYQNYQVNDPLSGYNKAMTSFNVALYDYGLRPVLKGYNAITPEFIRLGARNFFDNLLAPLRFVSNVLQFKFEEAGEEFKRFTANTIMGFGGLMDVASKMGLKKHPADLGTVLAHWGVGSGFHIVLPILGPSNLRDTLTLPATWYASFTAYIDPTWASIAISAYGFGNELSFRLDEIDEIYHNTPNLYPFLRDAYEQRRNELSK”, the “soluble on expression in E. coli” value was “not soluble”. In the case of “PLLIKNGEIITADSRYKADIYAEGETITRIGQNLEAPPGTEVIDATGKYVFPGFIDPHVHIYLPFMATFAKDTHETGSKAALMGGTTTYIEMCCPSRNDDALEGYQLWKSKAEGNSYCDYTFHMAVSKFDEKTEGQLREIVADGISSFKIFLSYKNFFGVDDGEMYQTLRLAKELGVIVTAHCENAELVGRLQQKLLSEGKTGPEWHEPSRPEAVEAEGTARFATFLETTGATGYVVHLSCKPALDAAMAAKARGVPIYIESVIPHFLLDKTYAERGGVEAMKYIMSPPLRDKRNQKVLWDALAQGFIDTVGTDHCPFDTEQKLLGKEAFTAIPNGIPAIEDRVNLLYTYGVSRGRLDIHRFVDAASTKAAKLFGLFPRKGTIAVGSDADLVVYDPQYRGTISVKTQHVNNDYNGFEGFEIDGRPSVVTVRGKVAVRDGQFVGEKGWGKLLRREPMYF”, the “soluble on expression in E. coli” value was “soluble”. With “MTSSTETTSTTPQVAVNDIGNEEAFLAAIDETIKYFNDGDIVDGVIVKVDRDEVLLDIGYKTEGVIPSRELSIKHDVDPNEVVKVGDEIEALVLQKEDKEGRLILSKKRAQYERAWGTIEKIKEEDGIVTGTVIEVVKGGLILDIGLRGFLPASLVEMRRVRDLQPYVGKELEAKIIELDKNRNNVVLSRRAWLEQTQSEVRQTFLTTLQKGQVRSGVVSSIVNFGAFVDLGGVDGLVHVSELSWKHIDHPSEVVEVGQEVTVEVLDVDMDRERVSLSLKATQEDPWQQFARTHQIGQVVPGKVTKLVPFGAFVRVDEGIEGLVHISELAERHVEIPEQVVQVNDEIFVKVIDIDLERRRISLSLKQANEAFGGDPASVEFDPTLYGMAASYDDQGNYIYPEGFDPETNDWLEGFESQREVWETQYAEAQQRFEQHQAQVIKSREADAQAEAEGAAAPAAGGSGAGVSGGSYSSESDDNSGALASDEALAALREKLAGGQSLEHHHHHH” the “soluble on expression in E. coli” value was “soluble”. With “MTRFAEKVAIITGSSNGIGRATAVLFAREGAKVTITGRHAERLEETRQQILAAGVSEQNVNSVVADVTTDAGQDEILSTTLGKFGKLDILVNNAGAAIPDSQSKTGTAQSIESYDATLNLNLRSVIALTKKAVPHLSSTKGEIVNISSIASGLHATPDFPYYSIAKAAIDQYTRNTAIDLIQHGIRVNSISPGLVATGFGSAMGMPEETSKKFYSTMATMKECVPAGVMGQPQDIAEVIAFLADRKTSSYIIGHQLVVDGGSSLIMGLHCQDFAKLLH” the “soluble on expression in E. coli” value was “soluble”.
